For assay [1], the target named is T1, Human transferrin receptor protein 1 (TFR1) (human, UniProt P02786 89-760, limits assumed).
T1 construct: also called human TfR
The assay is described as follows: soft randomization libraries selected against human TfR.

The target of assay [2] is T1, Human transferrin receptor protein 1 …. The assay is described as follows: binding ELISA, purified Fab-Fc fusion, TfR coated on the plate. How it is done:
Binding ELISAs were conducted with purified Fab-Fc fusion variants with human or cyno TfR coated on the plate, as described above. The variants from the clone CH3C.18 maturation library, clone CH3C.3.2-1, clone CH3C.3.2-5, and clone CH3C.3.2-19, bound human and cyno TfR with approximately equivalent EC₅₀ values, whereas the parent clones CH3C.18 and CH3C.35 had greater than 10-fold better binding to human versus cyno TfR.
ELISA plates were coated with antigen, typically at […] overnight, then blocked with 1% BSA before addition of phage or periplasmic extracts. […] The plates were washed again, and then developed with TMB reagent and quenched with 2N sulfuric acid. Absorbance at 450 nm was quantified using a plate reader (BioTek®) and binding curves were plotted using Prism software where applicable. Absorbance signal for tested clones was compared to negative control (phage or paraplasmic extract lacking Fc). In some assays, soluble transferrin or other competitor was added during the binding step, typically at significant molar excess (greater than 10-fold excess).

For assay [3] the target is unchanged. As to the kind of experiment: selection of combinatorial CH3 libraries for binders to human TfR, affinity maturation.

Results on 5 molecules are retold here after patent US20210130485A1 (DENALI THERAPEUTICS, published 2021).

Where a chain is given by its changes, count along the chain named.

T1 sequence (P02786 89-760 limits assumed): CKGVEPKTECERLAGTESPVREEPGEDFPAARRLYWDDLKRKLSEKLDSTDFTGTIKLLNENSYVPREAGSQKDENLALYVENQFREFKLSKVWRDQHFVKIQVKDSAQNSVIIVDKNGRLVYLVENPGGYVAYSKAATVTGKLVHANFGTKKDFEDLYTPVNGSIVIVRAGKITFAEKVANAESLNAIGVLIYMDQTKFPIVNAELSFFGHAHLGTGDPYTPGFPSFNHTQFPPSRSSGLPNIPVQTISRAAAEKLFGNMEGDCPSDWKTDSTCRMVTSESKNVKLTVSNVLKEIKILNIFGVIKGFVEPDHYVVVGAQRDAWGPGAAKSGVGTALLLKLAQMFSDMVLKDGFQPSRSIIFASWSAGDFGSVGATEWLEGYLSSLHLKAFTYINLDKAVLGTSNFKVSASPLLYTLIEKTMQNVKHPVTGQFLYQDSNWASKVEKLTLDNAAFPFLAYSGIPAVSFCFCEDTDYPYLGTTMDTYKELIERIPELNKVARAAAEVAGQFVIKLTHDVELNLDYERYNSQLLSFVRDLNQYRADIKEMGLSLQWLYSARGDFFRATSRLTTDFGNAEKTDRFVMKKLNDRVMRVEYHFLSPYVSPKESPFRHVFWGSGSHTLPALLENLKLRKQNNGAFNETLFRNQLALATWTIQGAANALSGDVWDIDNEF

B1: Clone CH3C.21 (designed binder)
chain: APELLGGPSVFLFPPKPKDTLMISRTPEVTCVVVDVSHEDPEVKFNWYVDGVEVHNAKTKPREEQYNSTYRVVSVLTVLHQDWLNGKEYKCKVSNKALPAPIEKTISKAKGQPREPQVYTLPPSRDELTKNQVSLTCLVKGFYPSDIAVEWESLGLVWVGYKTTPPVLDSDGSFFLYSKLTVPKSTWQQGWVFSCSVMHEALHNHYTQKSLSLSPGK
notes: Modified Fc polypeptide
Consider B1, for which, in assay [1], the binding result is recorded as “binds”.

B2: Clone CH3C.3.2-1 (designed binder)
chain: B1 chain with L156H, G160N, Y161F
notes: Modified Fc polypeptide; also called CH3C.18.3.2-1
For the molecule B2, the binding result in assay [2] is recorded as “binds”.

B3: Clone CH3C.35.21 (designed binder)
chain: B1 chain with E150W, L154Y, L156T, V157E, V159S, G160S, P183T, S185E, T186E, W191F
notes: Modified Fc polypeptide
Turning to B3, the binding result in assay [3] is reported as “binds”.

B4: Clone CH3C.34 (designed binder)
chain: B1 chain with G160F, Y161S
notes: Modified Fc polypeptide
Consider B4, for which, in assay [1], the binding result is “binds”.

B5: Clone CH3C.25 (designed binder)
chain: B1 chain with L154M, L156H, P183D
notes: Modified Fc polypeptide
With B5, the binding result in assay [1] is “binds”.
